Assay results taken from PMC4426631, “Insect antimicrobial peptides show potentiating functional interactions against Gram-negative bacteria” (Proceedings of the Royal Society B: Biological Sciences, 2015).
Cf = 5(6)-carboxyfluorescein

B1: Metchnikowin-1 (P4), Drosophila melanogaster, Cf-[residues removed]-NH2 (peptide)
peptide: Cf-HRHQGPIFDTRPSPFNPNQPRPGPIY-NH2
notes: metchnikowin 1 of Drosophila melanogaster; source: synthetic peptide (PANATecs, Tübingen), purified to >95%
B2: Abaecin (P3), Bombus pascuorum, Cf-[residues removed]-NH2 (peptide)
peptide: Cf-FVPYNPPRPGQSKPFPSFPGHGPFNPKIQWPYPLPNPGH-NH2
notes: abaecin of Bombus pascuorum, 39 residues; also called B. pascuorum abaecin; source: synthetic peptide (PANATecs, Tübingen), purified to >95%
B3: Metalnikowin IIA (P2), Palomena prasina, Cf-VDKPDYRPRPWPRPN-NH2 (peptide)
peptide: Cf-VDKPDYRPRPWPRPN-NH2
notes: metalnikowin IIA of Palomena prasina; source: synthetic peptide (PANATecs, Tübingen), purified to >95%
B4: Metchnikowin-2 (P5), Drosophila melanogaster, Cf-[residues removed]-NH2 (peptide)
peptide: Cf-HRRQGPIFDTRPSPFNPNQPRPGPIY-NH2
notes: metchnikowin 2 of Drosophila melanogaster; source: synthetic peptide (PANATecs, Tübingen), purified to >95%
B5: Metalnikowin I (P1), Palomena prasina, Cf-VDKPDYRPRPRPPNM-NH2 (peptide)
peptide: Cf-VDKPDYRPRPRPPNM-NH2
notes: metalnikowin I of Palomena prasina; source: synthetic peptide (PANATecs, Tübingen), purified to >95%

The binders below were run against T1, DnaK–BHQ10 (E. coli chaperone DnaK labelled with Black Hole Quencher 10) (E. coli, UniProt P0A6Y8 1-638, BHQ10 (from BHQ10-NHS-ester), labelling ratio 1 : 9 DnaK : BHQ10) (assay: FRET or BRET; FRET-based quenching assay in solution: fluorescein-modified peptide (50 μl, 1.3 nmol/l) mixed with a serial dilution of DnaK–BHQ10 (50 μl, 0.8–13 000 nmol/l, 1 : 4 series) in modifying buffer (20 mmol/l Na2HPO4, 20 mmol/l KH2PO4, 5 mmol/l MgCl2, 150 mmol/l KCl, pH 7.4), black 384-well plate, 2 h; Kd by non-linear regression (dose-response logistical function, SlideWrite) of quenching against DnaK …). Conditions: both partners purified.
T1 construct: chaperone DnaK of Escherichia coli; also called bacterial DnaK; quencher-labelled bacterial DnaK probe; source: produced by Michael Zahn [50]; dialysed and labelled with BHQ10-NHS-ester
T1 sequence (P0A6Y8 whole entry): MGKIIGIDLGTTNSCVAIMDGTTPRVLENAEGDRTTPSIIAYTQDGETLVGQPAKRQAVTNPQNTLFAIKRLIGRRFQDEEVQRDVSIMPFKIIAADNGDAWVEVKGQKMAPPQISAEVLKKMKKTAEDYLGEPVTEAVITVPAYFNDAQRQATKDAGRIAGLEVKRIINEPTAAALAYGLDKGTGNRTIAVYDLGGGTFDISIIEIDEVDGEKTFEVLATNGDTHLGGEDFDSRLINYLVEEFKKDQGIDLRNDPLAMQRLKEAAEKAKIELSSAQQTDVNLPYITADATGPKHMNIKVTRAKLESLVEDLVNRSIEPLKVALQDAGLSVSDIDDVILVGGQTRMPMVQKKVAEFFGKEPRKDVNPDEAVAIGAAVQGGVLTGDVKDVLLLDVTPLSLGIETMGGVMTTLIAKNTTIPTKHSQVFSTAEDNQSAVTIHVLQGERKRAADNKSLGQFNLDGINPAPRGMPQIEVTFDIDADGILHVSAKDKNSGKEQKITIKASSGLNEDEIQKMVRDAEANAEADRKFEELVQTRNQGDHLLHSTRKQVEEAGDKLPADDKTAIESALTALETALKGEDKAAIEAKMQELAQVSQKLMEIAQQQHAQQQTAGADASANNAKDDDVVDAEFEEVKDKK

**Q.** Which Kd does the source give for B1 here?
**A.** > 5 µM

**Q.** For B2, which Kd is on record?
**A.** 0.19 ± 0.03 µM

**Q.** How did the Kd turn out when B3 was run?
**A.** > 5 µM

**Q.** B4 was tested. Which Kd did it give?
**A.** > 5 µM

**Q.** How did the Kd turn out when B5 was run?
**A.** > 5 µM
